# From patent US20210388087A1 (Chugai, published 2021)
# B1: H183/L072 VL A25S (antibody, name in Kabat numbering, V domains shown)
# VH: QVQLVESGGGLVQPGRSLRLSCAASGFTFSNAWMHWVRQAPGKGLEWVAQIKDKGNAYAAYYAPSVKGRFTISRDDSKNSIYLQMNSLKTEDTAVYYCHYVHYASASTVLPAFGVDAWGQGTTVTVSS
# VL: DIVMTQSPLSLPVTPGEPASISCQSSQELVHMNRNTYLHWYQQKPGQAPRLLIYKVSNRFPGVPDRFSGSGSGTDFTLKISRVEAEDVGVYYCAQGTSVPFTFGQGTKLEIK
# notes: Dual-Ig
# B2: H183/L072 VL A25T (antibody, name in Kabat numbering, V domains shown)
# VH: QVQLVESGGGLVQPGRSLRLSCAASGFTFSNAWMHWVRQAPGKGLEWVAQIKDKGNAYAAYYAPSVKGRFTISRDDSKNSIYLQMNSLKTEDTAVYYCHYVHYASASTVLPAFGVDAWGQGTTVTVSS
# VL: DIVMTQSPLSLPVTPGEPASISCQTSQELVHMNRNTYLHWYQQKPGQAPRLLIYKVSNRFPGVPDRFSGSGSGTDFTLKISRVEAEDVGVYYCAQGTSVPFTFGQGTKLEIK
# notes: Dual-Ig
# B3: H183/L072 VL A25V (antibody, name in Kabat numbering, V domains shown)
# VH: QVQLVESGGGLVQPGRSLRLSCAASGFTFSNAWMHWVRQAPGKGLEWVAQIKDKGNAYAAYYAPSVKGRFTISRDDSKNSIYLQMNSLKTEDTAVYYCHYVHYASASTVLPAFGVDAWGQGTTVTVSS
# VL: DIVMTQSPLSLPVTPGEPASISCQVSQELVHMNRNTYLHWYQQKPGQAPRLLIYKVSNRFPGVPDRFSGSGSGTDFTLKISRVEAEDVGVYYCAQGTSVPFTFGQGTKLEIK
# notes: Dual-Ig
# B4: H183/L072 VL A89D (antibody, name in Kabat numbering, V domains shown)
# VH: QVQLVESGGGLVQPGRSLRLSCAASGFTFSNAWMHWVRQAPGKGLEWVAQIKDKGNAYAAYYAPSVKGRFTISRDDSKNSIYLQMNSLKTEDTAVYYCHYVHYASASTVLPAFGVDAWGQGTTVTVSS
# VL: DIVMTQSPLSLPVTPGEPASISCQASQELVHMNRNTYLHWYQQKPGQAPRLLIYKVSNRFPGVPDRFSGSGSGTDFTLKISRVEAEDVGVYYCDQGTSVPFTFGQGTKLEIK
# notes: Dual-Ig
# B5: H183/L072 VL A89E (antibody, name in Kabat numbering, V domains shown)
# VH: QVQLVESGGGLVQPGRSLRLSCAASGFTFSNAWMHWVRQAPGKGLEWVAQIKDKGNAYAAYYAPSVKGRFTISRDDSKNSIYLQMNSLKTEDTAVYYCHYVHYASASTVLPAFGVDAWGQGTTVTVSS
# VL: DIVMTQSPLSLPVTPGEPASISCQASQELVHMNRNTYLHWYQQKPGQAPRLLIYKVSNRFPGVPDRFSGSGSGTDFTLKISRVEAEDVGVYYCEQGTSVPFTFGQGTKLEIK
# notes: Dual-Ig
# B6: H183/L072 VL A89F (antibody, name in Kabat numbering, V domains shown)
# VH: QVQLVESGGGLVQPGRSLRLSCAASGFTFSNAWMHWVRQAPGKGLEWVAQIKDKGNAYAAYYAPSVKGRFTISRDDSKNSIYLQMNSLKTEDTAVYYCHYVHYASASTVLPAFGVDAWGQGTTVTVSS
# VL: DIVMTQSPLSLPVTPGEPASISCQASQELVHMNRNTYLHWYQQKPGQAPRLLIYKVSNRFPGVPDRFSGSGSGTDFTLKISRVEAEDVGVYYCFQGTSVPFTFGQGTKLEIK
# notes: Dual-Ig
# B7: H183/L072 VL A89G (antibody, name in Kabat numbering, V domains shown)
# VH: QVQLVESGGGLVQPGRSLRLSCAASGFTFSNAWMHWVRQAPGKGLEWVAQIKDKGNAYAAYYAPSVKGRFTISRDDSKNSIYLQMNSLKTEDTAVYYCHYVHYASASTVLPAFGVDAWGQGTTVTVSS
# VL: DIVMTQSPLSLPVTPGEPASISCQASQELVHMNRNTYLHWYQQKPGQAPRLLIYKVSNRFPGVPDRFSGSGSGTDFTLKISRVEAEDVGVYYCGQGTSVPFTFGQGTKLEIK
# notes: Dual-Ig
# B8: H183/L072 VL A89H (antibody, name in Kabat numbering, V domains shown)
# VH: QVQLVESGGGLVQPGRSLRLSCAASGFTFSNAWMHWVRQAPGKGLEWVAQIKDKGNAYAAYYAPSVKGRFTISRDDSKNSIYLQMNSLKTEDTAVYYCHYVHYASASTVLPAFGVDAWGQGTTVTVSS
# VL: DIVMTQSPLSLPVTPGEPASISCQASQELVHMNRNTYLHWYQQKPGQAPRLLIYKVSNRFPGVPDRFSGSGSGTDFTLKISRVEAEDVGVYYCHQGTSVPFTFGQGTKLEIK
# notes: Dual-Ig
# B9: H183/L072 VL A89I (antibody, name in Kabat numbering, V domains shown)
# VH: QVQLVESGGGLVQPGRSLRLSCAASGFTFSNAWMHWVRQAPGKGLEWVAQIKDKGNAYAAYYAPSVKGRFTISRDDSKNSIYLQMNSLKTEDTAVYYCHYVHYASASTVLPAFGVDAWGQGTTVTVSS
# VL: DIVMTQSPLSLPVTPGEPASISCQASQELVHMNRNTYLHWYQQKPGQAPRLLIYKVSNRFPGVPDRFSGSGSGTDFTLKISRVEAEDVGVYYCIQGTSVPFTFGQGTKLEIK
# notes: Dual-Ig
# B10: H183/L072 VL A89K (antibody, name in Kabat numbering, V domains shown)
# VH: QVQLVESGGGLVQPGRSLRLSCAASGFTFSNAWMHWVRQAPGKGLEWVAQIKDKGNAYAAYYAPSVKGRFTISRDDSKNSIYLQMNSLKTEDTAVYYCHYVHYASASTVLPAFGVDAWGQGTTVTVSS
# VL: DIVMTQSPLSLPVTPGEPASISCQASQELVHMNRNTYLHWYQQKPGQAPRLLIYKVSNRFPGVPDRFSGSGSGTDFTLKISRVEAEDVGVYYCKQGTSVPFTFGQGTKLEIK
# notes: Dual-Ig
# B11: H183/L072 VL A89L (antibody, name in Kabat numbering, V domains shown)
# VH: QVQLVESGGGLVQPGRSLRLSCAASGFTFSNAWMHWVRQAPGKGLEWVAQIKDKGNAYAAYYAPSVKGRFTISRDDSKNSIYLQMNSLKTEDTAVYYCHYVHYASASTVLPAFGVDAWGQGTTVTVSS
# VL: DIVMTQSPLSLPVTPGEPASISCQASQELVHMNRNTYLHWYQQKPGQAPRLLIYKVSNRFPGVPDRFSGSGSGTDFTLKISRVEAEDVGVYYCLQGTSVPFTFGQGTKLEIK
# notes: Dual-Ig
# B12: H183/L072 VL A89M (antibody, name in Kabat numbering, V domains shown)
# VH: QVQLVESGGGLVQPGRSLRLSCAASGFTFSNAWMHWVRQAPGKGLEWVAQIKDKGNAYAAYYAPSVKGRFTISRDDSKNSIYLQMNSLKTEDTAVYYCHYVHYASASTVLPAFGVDAWGQGTTVTVSS
# VL: DIVMTQSPLSLPVTPGEPASISCQASQELVHMNRNTYLHWYQQKPGQAPRLLIYKVSNRFPGVPDRFSGSGSGTDFTLKISRVEAEDVGVYYCMQGTSVPFTFGQGTKLEIK
# notes: Dual-Ig
# B13: H183/L072 VL A89N (antibody, name in Kabat numbering, V domains shown)
# VH: QVQLVESGGGLVQPGRSLRLSCAASGFTFSNAWMHWVRQAPGKGLEWVAQIKDKGNAYAAYYAPSVKGRFTISRDDSKNSIYLQMNSLKTEDTAVYYCHYVHYASASTVLPAFGVDAWGQGTTVTVSS
# VL: DIVMTQSPLSLPVTPGEPASISCQASQELVHMNRNTYLHWYQQKPGQAPRLLIYKVSNRFPGVPDRFSGSGSGTDFTLKISRVEAEDVGVYYCNQGTSVPFTFGQGTKLEIK
# notes: Dual-Ig
# B14: H183/L072 VL A89P (antibody, name in Kabat numbering, V domains shown)
# VH: QVQLVESGGGLVQPGRSLRLSCAASGFTFSNAWMHWVRQAPGKGLEWVAQIKDKGNAYAAYYAPSVKGRFTISRDDSKNSIYLQMNSLKTEDTAVYYCHYVHYASASTVLPAFGVDAWGQGTTVTVSS
# VL: DIVMTQSPLSLPVTPGEPASISCQASQELVHMNRNTYLHWYQQKPGQAPRLLIYKVSNRFPGVPDRFSGSGSGTDFTLKISRVEAEDVGVYYCPQGTSVPFTFGQGTKLEIK
# notes: Dual-Ig
# B15: H183/L072 VL A89Q (antibody, name in Kabat numbering, V domains shown)
# VH: QVQLVESGGGLVQPGRSLRLSCAASGFTFSNAWMHWVRQAPGKGLEWVAQIKDKGNAYAAYYAPSVKGRFTISRDDSKNSIYLQMNSLKTEDTAVYYCHYVHYASASTVLPAFGVDAWGQGTTVTVSS
# VL: DIVMTQSPLSLPVTPGEPASISCQASQELVHMNRNTYLHWYQQKPGQAPRLLIYKVSNRFPGVPDRFSGSGSGTDFTLKISRVEAEDVGVYYCQQGTSVPFTFGQGTKLEIK
# notes: Dual-Ig
# B16: H183/L072 VL A89R (antibody, name in Kabat numbering, V domains shown)
# VH: QVQLVESGGGLVQPGRSLRLSCAASGFTFSNAWMHWVRQAPGKGLEWVAQIKDKGNAYAAYYAPSVKGRFTISRDDSKNSIYLQMNSLKTEDTAVYYCHYVHYASASTVLPAFGVDAWGQGTTVTVSS
# VL: DIVMTQSPLSLPVTPGEPASISCQASQELVHMNRNTYLHWYQQKPGQAPRLLIYKVSNRFPGVPDRFSGSGSGTDFTLKISRVEAEDVGVYYCRQGTSVPFTFGQGTKLEIK
# notes: Dual-Ig
# B17: H183/L072 VL A89S (antibody, name in Kabat numbering, V domains shown)
# VH: QVQLVESGGGLVQPGRSLRLSCAASGFTFSNAWMHWVRQAPGKGLEWVAQIKDKGNAYAAYYAPSVKGRFTISRDDSKNSIYLQMNSLKTEDTAVYYCHYVHYASASTVLPAFGVDAWGQGTTVTVSS
# VL: DIVMTQSPLSLPVTPGEPASISCQASQELVHMNRNTYLHWYQQKPGQAPRLLIYKVSNRFPGVPDRFSGSGSGTDFTLKISRVEAEDVGVYYCSQGTSVPFTFGQGTKLEIK
# notes: Dual-Ig
# B18: H183/L072 VL A89T (antibody, name in Kabat numbering, V domains shown)
# VH: QVQLVESGGGLVQPGRSLRLSCAASGFTFSNAWMHWVRQAPGKGLEWVAQIKDKGNAYAAYYAPSVKGRFTISRDDSKNSIYLQMNSLKTEDTAVYYCHYVHYASASTVLPAFGVDAWGQGTTVTVSS
# VL: DIVMTQSPLSLPVTPGEPASISCQASQELVHMNRNTYLHWYQQKPGQAPRLLIYKVSNRFPGVPDRFSGSGSGTDFTLKISRVEAEDVGVYYCTQGTSVPFTFGQGTKLEIK
# notes: Dual-Ig
# B19: H183/L072 VL A89V (antibody, name in Kabat numbering, V domains shown)
# VH: QVQLVESGGGLVQPGRSLRLSCAASGFTFSNAWMHWVRQAPGKGLEWVAQIKDKGNAYAAYYAPSVKGRFTISRDDSKNSIYLQMNSLKTEDTAVYYCHYVHYASASTVLPAFGVDAWGQGTTVTVSS
# VL: DIVMTQSPLSLPVTPGEPASISCQASQELVHMNRNTYLHWYQQKPGQAPRLLIYKVSNRFPGVPDRFSGSGSGTDFTLKISRVEAEDVGVYYCVQGTSVPFTFGQGTKLEIK
# notes: Dual-Ig
# B20: H183/L072 VL A89W (antibody, name in Kabat numbering, V domains shown)
# VH: QVQLVESGGGLVQPGRSLRLSCAASGFTFSNAWMHWVRQAPGKGLEWVAQIKDKGNAYAAYYAPSVKGRFTISRDDSKNSIYLQMNSLKTEDTAVYYCHYVHYASASTVLPAFGVDAWGQGTTVTVSS
# VL: DIVMTQSPLSLPVTPGEPASISCQASQELVHMNRNTYLHWYQQKPGQAPRLLIYKVSNRFPGVPDRFSGSGSGTDFTLKISRVEAEDVGVYYCWQGTSVPFTFGQGTKLEIK
# notes: Dual-Ig
# B21: H183/L072 VL E27aA (antibody, name in Kabat numbering, V domains shown)
# VH: QVQLVESGGGLVQPGRSLRLSCAASGFTFSNAWMHWVRQAPGKGLEWVAQIKDKGNAYAAYYAPSVKGRFTISRDDSKNSIYLQMNSLKTEDTAVYYCHYVHYASASTVLPAFGVDAWGQGTTVTVSS
# VL: DIVMTQSPLSLPVTPGEPASISCQASQALVHMNRNTYLHWYQQKPGQAPRLLIYKVSNRFPGVPDRFSGSGSGTDFTLKISRVEAEDVGVYYCAQGTSVPFTFGQGTKLEIK
# notes: Dual-Ig
# Biological target: T1, Human CD137 ECD (human)
# T1 construct: entry includes C-terminal His-tag and biotin acceptor peptide; also called human CD137 extracellular domain; 4-1BB
# Experiment: Biacore SPR, vs parent H183/L072
# T1 sequence (chain, as listed by the source limits assumed): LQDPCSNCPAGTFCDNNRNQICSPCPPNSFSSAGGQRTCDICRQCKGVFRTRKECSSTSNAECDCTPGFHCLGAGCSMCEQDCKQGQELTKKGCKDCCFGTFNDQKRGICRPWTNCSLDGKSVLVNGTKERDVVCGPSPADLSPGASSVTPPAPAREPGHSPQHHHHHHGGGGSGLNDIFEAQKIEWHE
row,Binder,fold change of affinity [fold]
1,B1,1.1
2,B2,0.7
3,B3,0.5
4,B4,0
5,B5,0
6,B6,0
7,B7,0.5
8,B8,0
9,B9,0
10,B10,0
11,B11,0
12,B12,0
13,B13,0
14,B14,0
15,B15,0
16,B16,0
17,B17,0
18,B18,0
19,B19,0
20,B20,0
21,B21,0.9
